{"source": "patent US20220170056A1", "about": "“COMPOSITIONS AND METHODS FOR BIOSYNTHESIS OF […] CANNABINOIDS IN A HE[…]” (INMED PHARMACEUTICALS INC., priority 2019, published 2022)", "molecules": {"B1": {"name": "IspDF3: novel bifunctional IspD-IspF fusion from soil metagenome fosmid NR0037_N05, 40.2 kDa (protein)", "chain": "MVHVSAIIAAGGRGERFGGPQPKQLLLLGGVPILKRTVDAFLRGYPFIEVIVALPAEFVANPPDYLDDVIVVEGGARRQDSVANAFRAVAPSAQVVVIHDAARPLVTPSLIERTVDAAVKHGAAIAALRATDTVKRGDASRVIRGTLPRDEIFLAQTPQAFRAGVLRDALALAASAADATDEAMLAEQAGHHVRLVDGDPRNLKITTPEDLEMRIGNGYDLHRLVTGRPLVLGGVTIPFEKGLQGHSDADAVCHAITDAILGAASAGDIGRHFPDTDPAWKDAKSIVLLQQAAQIVSRAGYAIANLDVVVIAQQPKLVPHIDAIRHSVAHALGIDVQQVSVKGKTNEGVDSMGAGESIAVHAVALLQHS"}, "B2": {"name": "IspDF2: novel bifunctional IspD-IspF fusion from soil metagenome fosmid NR0032_O07, 42.1 kDa (protein)", "chain": "MQVTAIIAAGGRGRRFGGGVPKQLVGVGGRPILERTVAAFLGHPAIHEVVVALPAELMADPPAYLRAAPKPIRLVAGGVQRQDSVRQAFQAANEQSDVIVIHDAARPFASADLISRTIAAAAEGGAALAAVPARDTVKRGAFAAGRTGPAGRQAVEGAPLLVVAETLPRDSIYLAQTPQAFRRDVLRDALALGEAGSEATDEATLAERAGHIVRLVEGEPANIKITTPDDLLVAFRIGAGYDLHRLVEGRPLVLGGVTIPFERGLLGHSDADAICHAVTDAVLGAAAAGDIGRHFPDSDPKWRDWSSIDLLRRASAIVKGRGYAIANVDAVVIAERPKLAPFLDEMRANVAGAIGIAVDAVGIKGKTNEGLGELGRGEAIAVHAVALLHL"}, "B3": {"name": "IspEF fusion: non-natural fusion, E. coli IspE linked by flexible linker (FL) to E. coli IspF (protein)", "chain": "MRTQWPSPAKLNLFLYITGQRADGYHTLQTLFQFLDYGDTISIELRDDGDIRLLTPVEGVEHEDNLIVRAARLLMKTAADSGRLPTGSGANISIDKRLPMGGGLGGGSSNAATVLVALNHLWQCGLSMDELAEMGLTLGADVPVFVRGHAAFAEGVGEILTPVDPPEKWYLVAHPGVSIPTPVIFKDPELPRNTPKRSIETLLKCEFSNDCEVIARKRFREVDAVLSWLLEYAPSRLTGTGACVFAEFDTESEARQVLEQAPEWLNGFVAKGANLSPLHRAMLSLGGGGSAAAMRIGHGFDVHAFGGEGPIIIGGVRIPYEKGLLAHSDGDVALHALTDALLGAAALGDIGKLFPDTDPAFKGADSRELLREAWRRIQAKGYTLGNVDVTIIAQAPKMLPHIPQMRVFIAEDLGCHMDDVNVKATTTEKLGFTGRGEGIACEAVALLIKATK"}, "B4": {"name": "pcaK: MFS aromatic acid antiporter amplified from Pseudomonas putida KT2440 (protein, UniProt Q51955 1-448, looked up)", "4-hydroxybenzoate transporter …": "MNQAQNSVGKSLDVQSFINQQPLSRYQWRVVLLCFLIVFLDGLDTAAMGFIAPALSQEWGIDRASLGPVMSAALIGMVFGALGSGPLADRFGRKGVLVGAVLVFGGFSLASAYATNVDQLLVLRFLTGLGLGAGMPNATTLLSEYTPERLKSLLVTSMFCGFNLGMAGGGFISAKMIPAYGWHSLLVIGGVLPLLLALVLMVWLPESARFLVVRNRGTDKIRKTLSPIAPQVVAEAGSFSVPEQKAVAARSVFAVIFSGTYGLGTMLLWLTYFMGLVIVYLLTSWLPTLMRDSGASMEQAAFIGALFQFGGVLSAVGVGWAMDRYNPHKVIGIFYLLAGVFAYAVGQSLGNITVLATLVLIAGMCVNGAQSAMPSLAARFYPTQGRATGVSWMLGIGRFGAILGAWSGATLLGLGWNFEQVLTALLVPAALATVGVIVKGLVSHADAT"}}, "key": {"MEP pathway flux": {"tested_on": "MEP pathway flux", "assay": "Lycopene production (MEP pathway flux) in recombinant E. coli", "assay_type": "cell-based, E. coli BL21(DE3)", "details": "for terpene titer (lycopene and isoprene), in words: IspDF2 and IspDF3 versions of the Dxs-IspDF-Idi chassis, FIG. 18", "method": "Both isoprene and lycopene starter cultures were cultivated overnight at 30° C. in LB media (Sigma-Aldrich) containing appropriate antibiotic/s. Isoprene starter cultures were then diluted to 15 mL with the medium to OD600 of 0.2, induced with arabinose and/or IPTG; and allowed to grow for 24 h at 30° C. in 25 mL sealed glass tube. Lycopene starter cultures were diluted to 5 mL with the medium to OD600 of 0.2, induced with IPTG, and allowed to grow for 24 h at 30° C. in culture tubes in the dark.\nLycopene is an intracellular product. 2 mL of cell culture was centrifuged at 8000 rpm for 5 min and lycopene was extracted by extraction from the pellet with 1 mL acetone. Extraction was performed at 55° C. with intermittent vortexing for 20 min in reduced light condition. The acetone suspension was centrifuged and filtered before analysis. Samples were analyzed on the PerkinElmer Flexar system equipped with Zorbax C-18 column (4.6×250 mm, Agilent Technologies) maintained at 30° C. Samples were run with mobile phase consisting of 66% (v/v) methanol, 30% (v/v) tetrahydrofuran and 4% (v/v) water at 1 mL/min flow rate. Lycopene detection was done by monitoring absorbance at 474 nm wavelength using a photodiode detector."}, "E. coli [1]": {"tested_on": "E. coli", "assay": "Olivetolate (OA) uptake into E. coli expressing heterologous transporter", "assay_type": "cell-based", "details": "24 to 48 hours after induction; compared to BL21 control without additional transporters (FIG. 8)", "method": "(§1) The following experimental host cells were tested: (1) E. coli transformed with plasmids encoding arabinose inducible transporters pcaK or pp3656; and (2)) E. coli transformed with plasmids encoding arabinose inducible transporters pcaK or pp3656 and B5 plasmid (encoding ispDF1 enzyme, GPPS, and an optimized variant NphB (see, Valliere et al.).\n(§2) Seed cultures of (1) were inoculated from glycerol stock into 5 mL LB with 34 μg/mL chloramphenicol, incubate at 30° C. overnight. Seed cultures of (2) were inoculated from glycerol stock into 5 mL LB with 34 μg/mL chloramphenicol and 50 μg/mL kanamycin, incubate at 30° C. overnight.\n(§3) Induction cultures of (1) were inoculated from seed culture into total culture volume 5 mL TB media with 0.1 mM OA and cultured at 30° C. until OD600 of 0.8. Cultures were induced by adding arabinose and magnesium to a final concentration of 5 mM arabinose and 5 mM MgCl2. During induction, cultures were incubated at 30° C. Induction culture samples were collected at 24 h and 48 hr time points after the start of induction.\n(§4) Cultures first centrifuged at 3000 rpm for 10 m to separate pellet and culture media supernatant fractions. Pellets also washed with PBS twice. Cell pellets lysed with B-PER Complete Reagent following manufacturer's protocol. […] Samples of the cell lysates were analyzed by SDS-PAGE analysis. […]"}, "E. coli [2]": {"tested_on": "E. coli", "assay": "CBGA production in E. coli expressing NphB variant and transporter, fed OA", "assay_type": "cell-based", "details": "cells expressing NphB variant; compared to control cell not expressing a heterologous transporter (FIG. 9)", "method": "as §1, §2\nas §3, with “(2)” for “(1)”, “0.5” for “0.1”, “OA, 5 mM MgCl2,” for “OA”, “arabinose” for “arabinose and magnesium”, “IPTG to a final concentration of 100 μM.” for “5 mM MgCl2.”\nas §4"}}}
{"molecule": "B1", "values": [{"measurement": "terpene titer (lycopene and isoprene), in words", "setting": "MEP pathway flux", "result": "lowered the titer"}]}
{"molecule": "B2", "values": [{"measurement": "terpene titer (lycopene and isoprene), in words", "setting": "MEP pathway flux", "result": "lowered the titer"}]}
{"molecule": "B3", "values": [{"measurement": "decrease in lycopene production than SALyc-SDFEI", "setting": "MEP pathway flux", "result": "at least 65%"}, {"measurement": "decrease in normalized lycopene titers than SALyc-SDFEI", "setting": "MEP pathway flux", "result": 85, "unit": "%"}, {"measurement": "lycopene production / titers, in words", "setting": "MEP pathway flux; comparison as stated in the sentence (FIGS. 21, 23, 25)", "result": "lowered the lycopene production substantially"}]}
{"molecule": "B4", "values": [{"measurement": "olivetolate uptake inside cells", "setting": "E. coli [1]", "result": "increased olivetolate uptake"}, {"measurement": "production of CBGA", "setting": "E. coli [2]", "result": "increased production of CBGA"}]}
